Patent publication US20230348573A1 (KEIO UNIVERSITY, published 2023)

Assays:
[1] = biological target: T1, full-length spike protein of SARS-CoV-2 (Wuhan strain) (SARS-CoV-2 (Wuhan strain), UniProt P0DTC2 14-1273); assay: ACE2 competition, spike on 293T cells, antibody 4 µg/mL
T1 construct: whole, on cells; Expressed in 293T cells

[2] = biological target: T2, RBD derived from SARS-CoV-2 (Wuhan strain) (SARS-CoV-2 (Wuhan strain), UniProt P0DTC2 319-541); assay: RBD beads, antibody 0.25 µg/mL, then labelled ACE2, flow cytometry
T2 construct: domain: RBD

[3] = biological target: T2, RBD derived from SARS-CoV-2 (Wuhan …); assay: RBD beads, antibody 4 µg/mL, then labelled ACE2, flow cytometry
[4] = biological target: T2, RBD derived from SARS-CoV-2 (Wuhan …); assay: RBD beads, antibody 1 µg/mL, then labelled ACE2, flow cytometry

Binder	binding amount (%) of ACE2 protein [1] [%]	fluorescence of ACE2 protein [2]	fluorescence of ACE2 protein [3]	fluorescence of ACE2 protein [4]
Ab302 (antibody, V domains shown) VH: EVQLVESGGGLVQPGGSLRLSCAASGVIVSRNYMTWVRQAPGKGLEWVSVIYSGGSTFYADSVKGRFTISRDNSKNTLYLQMNSLRAEDTAVYYCARDRGEDVFDIWGQGTMVTVSS VL: DIQLTQSPSSLSASVGDRVTITCRASQGISSYLAWYQQKPGKAPKLLIYAASTLQSGVPSRFSGSGSGTDFTLTISSLQPEDFATYYCQQLNSYPGYTFGQGTKLEIK	4.7	1400	189	372
Ab374 (antibody, V domains shown) VH: EVQLVESGGGLIQPGGSLRLSCVASGFTVSSNYLAWVRQAPGQGLEWVSLIYPGGSTFYADSVKGRFTISRGNSNNTLYLQLNSLRTEDTAVYYCASLYRRGGDSWGQGTLVTVSS VL: DIQMTQSPSSLSASVGDRVTITCQASQDIRNYLNWYQQKPGKAPKLLIYDASNLQTGVPSRFSGRGSGTDFTFTISSLQAEDIATYYCQQYDNLPITFGQGTRLEIK	10.1	1360	244	429
Ab176 (antibody, V domains shown) VH: EVQLVESGGGLVQPGGSLRLSCAASGFTFSSYSMNWVRQAPGKGLEWVSYISGSSSTIYYADSVKGRFTISRDNAKNSLYLQMNSLRAEDTAVYYCVSSEWLLPRFFDYWGQGTLVTVSS VL: QPVLTQEASVSGTVGQKVTLSCTGNRNNIGSYPVGWYQQISHGAPKTVMFGNSPPSGIPDRFFGSRSGTTASLTISGLQPEDEADYYCSTWDYSLSAVVFGGGTKLTVL	8.3	2660	366	1190
Ab114 (antibody, V domains shown) VH: EVQLVESGGGLIQPGGSLRLSCAASGFTVSSNYMNWVRQAPGKGLEWVSVIYSGGSTFYADSVKGRFTISRDNSKNTLYLQMNSLRVEDTAVYYCARDLDTQGGMDVWGQGTTVTVSS VL: EIVLTQSPGSLSLSPGERATLSCRASQGVSSSYLAWYQHKPGQAPRLLIFGASTRATGIPDRFSGSGSGTDFTLTISRLEPEDFAVYYCQLYGSSPGTFGQGTKLEIK	10.9	3900	672	2040
Ab863 (antibody, V domains shown) VH: EVQLVQSGAEVKKPGASVKVSCQASGYTFITYYMHWVRQAPGQGLEWMGIINPDGGSISYAQKFQGRVTMTRDTSTSTVYMELSSLRSEDTAVYYCARGLSPTFSSSWFDNWGLGTLVTVSS VL: DVVMTQSPATLSVSPGERATLSCRASQSVSSNLAWYQQKPGQAPRLLIYGASTRDTGIPARFSGSGSGTEFTLTISSLQSEDFAVYFCQQYKNWLLTFGGGTKVEIK	1.7			
Ab175 (antibody, V domains shown) VH: EVQLVESGGGLVQPGGSLRLSCAASGIIVSSNYMTWVRQAPGKGLEWVSVLYSGGSTFYADSVKGRFTISRDNSKNMLYLQMNSLRAEDTAVYYCARDLQELGVDCWGQGTLVTVSS VL: DIQLTQSPSFLSASVGDRVTITCRASQGISSYLAWYQQKPGKAPKLLIYAASTLQSGVPSRFSGSGSGTEFTLTISSLQPEDFATYYCQQLDSYPRFGGGTKVEIK	6.9	1660		439
Ab315 (antibody, V domains shown) VH: EVQLLESGGGLIQPGGSLRLSCAASGLIVSSNYMSWVRQAPGKGLEWVSVIYSGGSTYYADSVKGRFISSRDNSKNTLYLQMNSLRAEDTAVYYCARGELDLPYGMDVWGQGTTVTVSS VL: QAVVTQPPSVSAAPGQKVTISCSGSSSNIGNNYVSWYQQLPGTAPKLLICDTNKRPSGIPDRFSGSKSGTSATLGITGLQTGDEADYYCGTWDRSLSAGVFGGGTKLTVL	5.2	927	160	307
